The values below come from patent publication US20220213181A1 (Novartis, published 2022).

The target in test [1] is T1, Human ANGPTL4(26-406)-FLAG-His6-Avi (human, UniProt Q9BY76 24-406, biotin on the C-terminal Avi tag (BirA) where the protein is immobilised).
T1 construct: the text calls it 20 amino acids), then QP, ANGPTL4 26-406 and FLAG-His6-Avi; the signal peptide is left out here; also called full length human ANGPTL4; hANGPTL4
T1 sequence: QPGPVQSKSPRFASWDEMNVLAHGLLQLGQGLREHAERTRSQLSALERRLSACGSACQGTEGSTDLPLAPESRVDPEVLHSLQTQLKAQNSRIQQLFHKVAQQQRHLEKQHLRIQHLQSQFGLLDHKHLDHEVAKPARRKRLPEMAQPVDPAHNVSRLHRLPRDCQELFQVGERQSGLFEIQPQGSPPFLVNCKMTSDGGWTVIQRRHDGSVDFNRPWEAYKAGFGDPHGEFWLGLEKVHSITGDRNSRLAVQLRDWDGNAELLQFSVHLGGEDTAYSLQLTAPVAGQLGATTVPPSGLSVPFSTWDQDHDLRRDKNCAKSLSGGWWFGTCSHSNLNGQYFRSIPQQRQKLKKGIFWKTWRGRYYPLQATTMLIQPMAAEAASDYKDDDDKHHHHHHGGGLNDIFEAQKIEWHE
Kind of test: Octet (ForteBio) kinetics; average KD of the runs. Background: BLI is a label-free optical method that tracks binding on a fibre tip over time.

Test [2] addresses T2, Human ANGPTL4(26-161)-FLAG-His6-Avi (human, biotin on the C-terminal Avi tag (BirA) where the protein is immobilised).
T2 construct: also called human ANGPTL4 N-terminal coiled coil domain; hANGPTL4-CCD
T2 chain: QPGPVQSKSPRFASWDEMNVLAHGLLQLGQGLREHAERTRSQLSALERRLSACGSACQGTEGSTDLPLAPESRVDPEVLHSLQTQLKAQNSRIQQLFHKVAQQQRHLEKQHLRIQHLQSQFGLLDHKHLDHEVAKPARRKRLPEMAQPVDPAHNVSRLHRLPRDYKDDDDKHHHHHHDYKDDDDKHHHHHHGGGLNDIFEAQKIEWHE
Kind of test: Octet (ForteBio) kinetics; average KD of the runs.

Test [3] deals with T3, Cynomolgus monkey ANGPTL4(26-406)-FLAG-His6-Avi (cynomolgus monkey, biotin on the C-terminal Avi tag (BirA) where the protein is immobilised).
T3 construct: also called Cyno ANGPTL4 (26-406)
T3 chain: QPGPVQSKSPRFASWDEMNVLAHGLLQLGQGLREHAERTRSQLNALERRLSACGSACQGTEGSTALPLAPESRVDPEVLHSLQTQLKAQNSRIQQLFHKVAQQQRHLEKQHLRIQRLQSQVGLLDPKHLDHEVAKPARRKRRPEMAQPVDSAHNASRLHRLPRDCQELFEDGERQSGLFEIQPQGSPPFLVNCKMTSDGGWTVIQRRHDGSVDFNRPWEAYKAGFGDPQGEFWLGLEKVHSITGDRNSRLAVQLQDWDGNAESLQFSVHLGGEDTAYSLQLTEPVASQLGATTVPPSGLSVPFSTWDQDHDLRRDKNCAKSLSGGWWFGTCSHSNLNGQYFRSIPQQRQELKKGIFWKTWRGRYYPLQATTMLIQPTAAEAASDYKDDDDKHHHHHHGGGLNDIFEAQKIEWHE
The test can be described thus: Octet (ForteBio) kinetics; average KD of the runs.

Test [4] deals with T4, Cynomolgus monkey ANGPTL4(26-161)-FLAG-His6-Avi (cynomolgus monkey, biotin on the C-terminal Avi tag (BirA) where the protein is immobilised).
T4 construct: also called Cyno ANGPTL4 (26-161)
T4 chain: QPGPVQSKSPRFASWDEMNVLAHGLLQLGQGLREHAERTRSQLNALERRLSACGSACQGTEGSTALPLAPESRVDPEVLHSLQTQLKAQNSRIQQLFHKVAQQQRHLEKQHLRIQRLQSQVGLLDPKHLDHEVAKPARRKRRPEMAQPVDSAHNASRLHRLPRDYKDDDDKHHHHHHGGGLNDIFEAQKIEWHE
The test can be described thus: Octet (ForteBio) kinetics; average KD of the runs.

In test [5] the target is T5, Mouse ANGPTL4(26-410)-FLAG-His6-Avi (mouse, UniProt Q9Z1P8 24-410, biotin on the C-terminal Avi tag (BirA) where the protein is immobilised).
T5 sequence: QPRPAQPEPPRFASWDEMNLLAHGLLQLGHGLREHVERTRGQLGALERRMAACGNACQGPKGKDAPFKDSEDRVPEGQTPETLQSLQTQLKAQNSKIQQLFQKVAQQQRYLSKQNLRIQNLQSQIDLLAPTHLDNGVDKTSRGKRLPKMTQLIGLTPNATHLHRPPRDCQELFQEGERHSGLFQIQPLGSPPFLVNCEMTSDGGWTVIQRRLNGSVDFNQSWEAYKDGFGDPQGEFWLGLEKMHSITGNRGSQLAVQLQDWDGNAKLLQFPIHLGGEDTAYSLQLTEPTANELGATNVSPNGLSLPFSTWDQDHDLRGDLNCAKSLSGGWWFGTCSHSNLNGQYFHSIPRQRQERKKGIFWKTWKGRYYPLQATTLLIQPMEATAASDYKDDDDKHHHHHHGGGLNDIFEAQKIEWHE
The test can be described thus: Octet (ForteBio) kinetics; average KD of the runs; Octet kinetics; average KD of the two mouse runs.

The target in test [6] is T6, Rat ANGPTL4(24-405)-FLAG-His6-Avi (rat, UniProt Q6TMA8 24-405, biotin on the C-terminal Avi tag (BirA) where the protein is immobilised).
T6 sequence: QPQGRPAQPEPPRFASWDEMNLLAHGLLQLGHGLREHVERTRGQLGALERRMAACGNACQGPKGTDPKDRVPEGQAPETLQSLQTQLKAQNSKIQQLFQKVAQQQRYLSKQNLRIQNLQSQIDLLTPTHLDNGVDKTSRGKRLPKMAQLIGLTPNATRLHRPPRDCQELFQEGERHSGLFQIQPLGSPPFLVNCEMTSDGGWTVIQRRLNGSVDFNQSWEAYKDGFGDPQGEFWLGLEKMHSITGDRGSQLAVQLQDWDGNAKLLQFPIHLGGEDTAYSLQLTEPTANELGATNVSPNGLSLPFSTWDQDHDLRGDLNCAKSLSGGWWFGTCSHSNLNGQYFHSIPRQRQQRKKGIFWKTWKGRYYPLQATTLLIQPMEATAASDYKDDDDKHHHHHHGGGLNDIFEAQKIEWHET
Kind of test: Octet (ForteBio) kinetics, biotinylated antigen on streptavidin sensor, IgG in solution; Octet kinetics, rat ANGPTL4 on the sensor, antibody up to 25 nM; run 2.

B1: NEG276-LALA (antibody, human IgG1, kappa, L234A L235A)
heavy: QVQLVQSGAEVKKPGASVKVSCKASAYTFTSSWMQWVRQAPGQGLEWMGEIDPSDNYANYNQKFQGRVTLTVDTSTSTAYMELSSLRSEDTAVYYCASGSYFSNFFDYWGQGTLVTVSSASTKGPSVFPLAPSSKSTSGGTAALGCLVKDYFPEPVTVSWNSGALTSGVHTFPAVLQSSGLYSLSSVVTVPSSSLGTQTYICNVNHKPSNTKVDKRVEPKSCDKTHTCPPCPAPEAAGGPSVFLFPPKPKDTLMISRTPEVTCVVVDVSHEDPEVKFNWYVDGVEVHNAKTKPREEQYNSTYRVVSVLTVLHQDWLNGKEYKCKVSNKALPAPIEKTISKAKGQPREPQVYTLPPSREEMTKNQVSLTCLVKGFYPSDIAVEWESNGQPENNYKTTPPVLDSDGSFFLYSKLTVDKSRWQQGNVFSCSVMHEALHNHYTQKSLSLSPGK
light: EIVMTQSPATLSVSPGERATLSCKASQDIGSNLNWLQQKPGQAPRRLIYAVSNRGPGIPARFSGSRSGSEYTLTISSLQSEDFAVYYCLQYASSPWTFGQGTKVEIKRTVAAPSVFIFPPSDEQLKSGTASVVCLLNNFYPREAKVQWKVDNALQSGNSQESVTEQDSKDSTYSLSSTLTLSKADYEKHKVYACEVTHQGLSSPVTKSFNRGEC
With B1, the dissociation constant (Kd) (in general, the constant that tells how readily two partners part at equilibrium) came to 0.013 nM in test [1]; 0.038 nM in test [2]; 0.015 nM in test [3]; 0.056 nM in test [4]; 6.2 nM in test [5]. Also, the koff (commonly a measure of how fast the partners let go of each other) in test [6] stood at 0.0011 s⁻¹. For the same molecule, in test [6], the kon (as a rule, the second-order rate constant of association) is 170000 M⁻¹ s⁻¹.
